From paper PMC12314560

Target: Angiotensin-converting enzyme 2 (recombinant human ACE2 protein-mFc Tag) (human) (UniProt Q9BYF1)
Experiment: BLI

UniProt Q9BYF1, sequence (Q9BYF1 18-740): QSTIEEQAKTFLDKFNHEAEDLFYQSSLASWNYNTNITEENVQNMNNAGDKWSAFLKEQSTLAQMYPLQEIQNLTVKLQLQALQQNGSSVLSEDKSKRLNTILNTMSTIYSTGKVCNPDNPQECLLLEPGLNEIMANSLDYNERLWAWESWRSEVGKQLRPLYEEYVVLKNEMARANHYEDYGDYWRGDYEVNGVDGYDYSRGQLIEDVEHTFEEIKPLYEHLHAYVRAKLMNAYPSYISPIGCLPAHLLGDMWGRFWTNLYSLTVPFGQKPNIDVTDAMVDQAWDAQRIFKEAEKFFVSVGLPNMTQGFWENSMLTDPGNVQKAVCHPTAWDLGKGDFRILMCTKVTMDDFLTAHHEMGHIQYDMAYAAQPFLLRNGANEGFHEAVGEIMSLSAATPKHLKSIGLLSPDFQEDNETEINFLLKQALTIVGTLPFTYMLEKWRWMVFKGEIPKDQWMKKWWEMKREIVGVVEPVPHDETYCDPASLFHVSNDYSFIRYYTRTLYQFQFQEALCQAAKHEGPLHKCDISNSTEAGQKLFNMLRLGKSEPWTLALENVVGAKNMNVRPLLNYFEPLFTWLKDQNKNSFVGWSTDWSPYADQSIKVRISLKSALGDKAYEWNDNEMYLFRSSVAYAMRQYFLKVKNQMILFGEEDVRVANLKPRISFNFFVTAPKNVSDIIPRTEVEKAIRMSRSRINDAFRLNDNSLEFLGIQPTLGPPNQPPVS

Beta S1 protein (domain or fragment) gave a Kd of 0.472 nM.
